This note sets out measurements from article doi:10.1101/2023.03.05.531154.

This assay concerns the target Man5GlcNAc2-enriched CH505.M5.G458Y chimeric SOSIP gp140 Env trimer (HIV-1 (CH505 transmitted/founder virus) | HIV-1). Briefly: BLI.

CH235 UCA IgG (antibody) showed a Kd of 4.5 nM.
Consider CH235.12 Fab, for which the Kd was determined as 0.2 nM.
